Test results from paper PMC5458116.

Test system: MBP-ZnF4 (ZnF_1012 fused to GCN4-p-LI coiled coil) (synthetic construct)
Test: EMSA
Details: 5 nM DNA, 5 nM protein, 5 mM Tris-HCl pH 8.5, 210 mM NaCl, 4.8% glycerol, 0.05% Tween 20, 8 mg/l BSA, 30 min, room temperature, 5% native PAGE in 0.5x Tris-borate

CcrM-methylated 152 bp PCR fragment with 2 ZnF binding sites
binding signal (fold weaker than unmethylated DNA (N1)) (adenine-N6 methylated, N6-methyladenine at GANTC sites (CcrM in vitro, both strands)): 70

unmethylated 152 bp PCR fragment with 2 ZnF binding sites
binding signal (fold preference over methylated DNA (N2)) (unlabelled competitors added): 70
